Numbering of substitutions follows the chain as printed. pKd: −log10 of the molar value.
What was measured:
Conditions in all cases: EMSA: 20 mM Tris pH 8, 60 mM KCl, 1 mM EDTA, 12% glycerol, 2 mM DTT, 1 ug poly(dI-dC), 12.5 ng (legend: 12.5 nM) Cy5-DNA, +/-5 mM Ca2+, 1% agarose 0.5x TAE …
[1] = biological target: T1, pMarR G106A G106A (cyanophage P-SSP7) (UniProt Q58N47); assay: EMSA
T1 sequence: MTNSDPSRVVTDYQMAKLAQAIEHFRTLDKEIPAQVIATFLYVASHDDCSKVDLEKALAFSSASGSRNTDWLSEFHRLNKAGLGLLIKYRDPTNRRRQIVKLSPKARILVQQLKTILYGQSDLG

[2] = biological target: T2, pMarR (Gp0.7) WT (cyanophage P-SSP7) (UniProt Q58N47); assay: EMSA
T2 sequence: T1 sequence with A106G

[3] = biological target: T3, pMarR R67A R67A (cyanophage P-SSP7) (UniProt Q58N47); assay: EMSA
T3 sequence: T1 sequence with R67A, A106G

[4] = biological target: T4, pMarR S66A S66A (cyanophage P-SSP7) (UniProt Q58N47); assay: EMSA
T4 sequence: T1 sequence with S66A, A106G

[5] = biological target: T2, pMarR (Gp0.7) WT (cyanophage P-SSP7); assay: DNase I footprinting

Row | Sequence | binding [1] | pKd [2] | binding [3] | binding [4] | binding [5]
1 | CAGCATCAATACCTGGTAGGACATTTTCAACAGTTCCTAAAAAAATATCCCCGATTTGATATTGACCTTGTGCGACGATTAATTCATCAACTTGATCATCTGTGAGTAGTGCTGCAATACGCGCCTGCTCAGCTATTACAATTTGCTGAGAC (double strand) [rne Pi+] | binds | 6.49 | no binding | binds | 
2 | CAGCATCAATACCTGGTAGGACATTTTCAACAGTTCCTAAAAAAATATCCCCGATTTGATATTGACCTTGTGCGACGATTAATTCATCAACTTGATCATCTGTGAGTAGTGCTGCAATACGCGCCTGCTCAGCTATTACAATTTGCTGAGACATAAAAATTTTAAAGTATGTTTTGAATTTTTGAAAATCGATAAAAAGTAAATAATTACATATTTAATTTTTCGCTAGCAATTTCTTGAAAGC (double strand) [rne footprint fragment (Pi+ and part of Pi)] |  |  |  |  | binds

From article PMC9692554
